From patent US20120252756A1, “Pharmaceutical Compositions and Methods for Treating, Controlling, Ameliorating, or Reversing Conditions of the Eye” (priority 2010, published 2012)

Legend:
[1] = tested on: Riken human corneal epithelial cell line (RT-HCEpiC); assay: Monolayer scratch assay (corneal re-epithelization); type: cell-based; settings: 10 ng/mL; 16 hours after wounding
Description: A single horizontal scratch was made to the HCEpiC monolayer. Cells were then incubated with PEG 3350 or HPMC 2910 in basal culture medium. Wound healing was calculated as the difference in the gap width between baseline measurements and after 16-hour incubation and is expressed as percentage gap closure. Bars represent the difference in the gap width between baseline measurements and after 16-hour incubation with treatment groups (n=3); lines on bars represent the standard error of the means. Raw data were analyzed with a one-way ANOVA followed by the Dunnett's Method test. * denotes statistical significance versus vehicle control; p<0.05.
We have developed an in vitro wound healing model using transformed human corneal epithelial cells insulted with a scratch to the monolayer and monitored for growth into the resulting cell-free gap. […]
Cells were examined and photographed after scratch and after 16 hours incubation with treatment to monitor closure of the cell-free gap using a light microscope. The percent closure was determined using the following equation. […]
Comparisons were made between treatment groups and the vehicle controls to determine the effect of the treatment on re-epithelization. […] All data was analyzed utilizing the statistical analysis software JMP (SAS Institute, Cary, N.C.).

EGFR = assay: Western blot of EGFR phosphorylation in RT-HCEpiC; type: cell-based, human; settings: 10 ng/mL for 10 minutes
Description: (§1) Human corneal epithelial cells (HCEpiC) were treated with 10% PEG-3350 in serum-free media over the course of 16 hours in an attempt to understand the molecular mechanisms behind the observed positive effect on corneal re-epithelization. Cell lysates were collected and assessed for protein activation by western blot using antibodies targeting key phosphorylation sites.
(§2) FIG. 11 is a graphical representation of peak phosphorylation time points for pAkt, pERK, and pEGFR. […] Cell lysates were collected and assessed for protein activation by western blot using antibodies targeting key phosphorylation sites. […] Ratio of phosphorylated protein to total, non-phosphorylated was quantified by densitometry.
(§3) RT-HCEpiC cell suspensions (2.5×10^5 cells/ml) were prepared in complete medium with 10% Fetal Bovine Serum (“FBS”) and added to each well of a 6-well plate, 2.5 mL suspension per well. […] Cell lysates were assayed for protein concentration and evaluated for Akt, ERK, EGFR, and PI3K activation by Western blot.
(§4) Culture medium was aspirated from each well and cells were washed with cold, non-sterile PBS twice. […] Cell lysates were assayed for protein concentration and analyzed by western blot. […]
(§5) Western Blot: Analysis of Western blot band density in captured and stored digital images was done using the Quantity One software on the VersaDod MP 4000. Density of bands was quantified. […]

Akt = assay: Western blot of Akt phosphorylation in RT-HCEpiC; type: cell-based, human; settings: 10 ng/mL for 10 minutes
Description: as §1, §2, §3, §4, §5

ERK = assay: Western blot of ERK phosphorylation in RT-HCEpiC; type: cell-based, human; settings: 10 ng/mL for 10 minutes
Description: as §1, §2, §3, §4, §5

PI3K = assay: Western blot of PI3K phosphorylation in RT-HCEpiC; type: cell-based, human; settings: 10 ng/mL for 10 minutes
Description: as §1
RT-HCEpiC cell suspensions (2.5×10^5 cells/ml) were prepared in complete medium with 10% Fetal Bovine Serum (“FBS”) and added to each well of a 6-well plate, 2.5 mL suspension per well. When cells reached confluence, they were serum starved overnight in basal DMEM/F12. Treatments were delivered in basal medium; treatments include control, 10 ng/mL HB-EGF (Heparin-bi-binding EGF-like growth factor) for 10 minutes; or 10% PEG-3350 for 10, 15, 20, 30 minutes, 1, 2, 4, 6, or 16 hours. Cell lysates were assayed for protein concentration and evaluated for Akt, ERK, EGFR, and PI3K activation by Western blot.
as §4, §5

B1: Heparin-binding EGF-like growth factor (protein, UniProt Q99075 63-148, looked up)
Heparin-binding EGF-like …: DLQEADLDLLRVTLSSKPQALATPNKEEHGKRKKKGKGLGKKRDPCLRKYKDFCIHGECKYVKELRAPSCICHPGYHGERCHGLSL
notes: growth factor used as positive assay control
- corneal re-epithelization (percent gap closure) versus vehicle control [1]: significantly increased
- phosphorylation of EGFR (EGFR): substantially increased
- phosphorylation of Akt (Akt): substantially increased
- phosphorylation of ERK (ERK): substantially increased
- pPI3K (PI3K): no effect
